# Results as given in article PMC12799932, “Development of a VHH that inhibits the binding of neuronal pentraxin 2 to a postsynaptic glutamate receptor, AMPAR” (The Journal of Biological Chemistry, 2025).
# Where “and” joins values, the source holds several entries; their conditions need not be identical. Equal entries are not always repeated.
# Legend:
# [1] = molecular target: NP2 CC2 (construct consisting of only the CC2 region of NP2) (human) (UniProt P47972); assay: mass photometry; Two^MP, 200 nM NP, 10 mM Hepes-NaOH pH 7.4, 150 mM NaCl, without CaCl2, 25 °C
# [2] = molecular target: NP2 CC2 (construct consisting of only the CC2 region of NP2) (human) (UniProt P47972); assay: mass photometry; Two^MP, 200 nM NP, 10 mM Hepes-NaOH pH 7.4, 150 mM NaCl, with 3 mM CaCl2, 25 °C
# [3] = molecular target: T1, NP2 N- (neuronal pentraxin 2 in which CC1 was deleted) (human); assay: mass photometry; Two^MP, 200 nM NP, 10 mM Hepes-NaOH pH 7.4, 150 mM NaCl, without CaCl2, 25 °C; settings: both partners purified
# T1 chain: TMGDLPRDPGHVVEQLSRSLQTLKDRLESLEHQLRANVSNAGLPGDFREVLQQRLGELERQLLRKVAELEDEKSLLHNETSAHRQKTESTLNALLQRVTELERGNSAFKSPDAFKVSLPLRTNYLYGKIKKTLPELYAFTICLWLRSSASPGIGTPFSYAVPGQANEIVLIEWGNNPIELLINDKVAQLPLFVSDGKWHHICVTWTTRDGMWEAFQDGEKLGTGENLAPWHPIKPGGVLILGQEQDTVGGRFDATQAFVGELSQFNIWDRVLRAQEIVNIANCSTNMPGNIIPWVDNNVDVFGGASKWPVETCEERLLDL
# [4] = molecular target: T1, NP2 N- (neuronal pentraxin 2 in which …); assay: mass photometry; Two^MP, 200 nM NP, 10 mM Hepes-NaOH pH 7.4, 150 mM NaCl, with 3 mM CaCl2, 25 °C; settings: both partners purified
# [5] = molecular target: VHH N1 (alpaca); assay: ITC; iTC200; 50 μM NP2 PTX from the syringe into 5 μM VHH N1 in the cell; 10 mM Hepes-NaOH pH 7.4, 150 mM NaCl, 3 mM CaCl2, 25 °C
# [6] = molecular target: VHH N1 (alpaca); assay: ITC; iTC200; 50 μM NP2 PTX from the syringe into 5 μM VHH N1 in the cell; 10 mM Hepes-NaOH pH 7.4, 150 mM NaCl, 0 mM CaCl2, 25 °C
# [7] = molecular target: T2, GluA4 ATD (amino-terminal domain of human GluA4), recombinant (human, UniProt P48058 21-402); assay: SPR; Biacore T200; GluA4 ATD (~400 RU) amine-coupled on CM5, NP2 constructs as analytes (31.25-2000 nM NP2 N- and NP2 PTX, 62.5-4000 nM NP2 CC2); 10 mM Hepes-NaOH pH 7.4, 150 mM NaCl, 0.005% Tween-20, with 3 mM CaCl2; settings: both partners purified
# T2 construct: AMPA-type glutamate receptor subunit GluA4, human, amino-terminal domain (ATD); source: Expi293 cells, secreted, purified (Ni-NTA, SEC)
# T2 sequence (looked up): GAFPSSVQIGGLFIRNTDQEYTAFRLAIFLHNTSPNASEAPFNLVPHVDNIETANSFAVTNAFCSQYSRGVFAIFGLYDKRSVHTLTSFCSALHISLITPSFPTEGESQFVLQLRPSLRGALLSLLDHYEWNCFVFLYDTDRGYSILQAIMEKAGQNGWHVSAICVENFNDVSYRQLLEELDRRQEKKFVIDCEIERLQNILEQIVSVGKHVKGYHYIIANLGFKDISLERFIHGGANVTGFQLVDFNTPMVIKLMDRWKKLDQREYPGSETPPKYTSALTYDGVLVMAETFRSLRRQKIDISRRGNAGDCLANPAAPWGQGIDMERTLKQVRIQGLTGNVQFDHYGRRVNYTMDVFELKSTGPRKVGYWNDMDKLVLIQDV
# [8] = molecular target: T3, NP2 PTX (pentraxin domain of neuronal pentraxin 2) (human) (UniProt P47972); assay: SPR; Biacore 8K; NP2 N- or NP2 PTX amine-coupled on CM5, VHH N1 analyte 5-80 nM, single-cycle kinetics; 10 mM Hepes-NaOH pH 7.4, 150 mM NaCl, 0.005% Tween-20, without CaCl2, 25 °C
# T3 sequence: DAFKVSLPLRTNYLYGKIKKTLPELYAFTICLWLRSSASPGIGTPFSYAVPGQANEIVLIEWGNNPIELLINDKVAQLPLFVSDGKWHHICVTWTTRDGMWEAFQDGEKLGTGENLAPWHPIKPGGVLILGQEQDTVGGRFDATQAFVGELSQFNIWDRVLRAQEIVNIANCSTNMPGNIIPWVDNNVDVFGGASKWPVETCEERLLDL
# [9] = molecular target: NP2 N- (neuronal pentraxin 2 in which CC1 was deleted) (human); assay: as above
# [10] = molecular target: T4, HA-NP2 (HA-tagged mouse full-length NP2) (Mus musculus, UniProt O70340); assay: immunostaining of cells or tissue; HEK293 cells expressing HA-tagged mouse NPs, fixed with 4% paraformaldehyde, permeabilized, stained with 1 μg/ml VHH N1, detected by rabbit anti-His; anti-HA as expression control; settings: one partner purified
# T4 construct: source: HEK293, transfected, in fixed cells; HEK293 tSA cells, cell supernatant; not shown: HA, N-terminal, kept
# [11] = molecular target: T5, NP1 PTX (pentraxin domain of neuronal pentraxin 1) (human, UniProt Q15818); assay: SPR; Biacore 8K; NP1 PTX or NPR PTX (~600 RU) amine-coupled on CM5, VHH N1 analyte 625-10,000 nM, multicycle kinetics; 10 mM Hepes-NaOH pH 7.4, 150 mM NaCl, 0.005% Tween-20, 3 mM CaCl2, 25 °C; settings: both partners purified
# T5 construct: neuronal pentraxin 1 (NP1, Nptx1), human, pentraxin (PTX) domain; also called PTX domain of NP1; source: Expi293 cells, secreted, purified (Ni-NTA, SEC)
# [12] = molecular target: T6, NPR PTX (pentraxin domain of neuronal pentraxin receptor) (human, UniProt O95502); assay: as above; settings: both partners purified
# T6 construct: neuronal pentraxin receptor (NPR, Nptxr), human, pentraxin (PTX) domain; also called PTX domain of NPR; source: Expi293 cells, secreted, purified (Ni-NTA, SEC)
# [13] = molecular target: NP2 C95S (full-length NP2 with cysteine 95 mutated to serine) (human) (UniProt P47972); assay: mass photometry; Two^MP; equal amounts of VHH N1 and NP2 N- or NP2 C95S, 200 nM each (as monomer); 10 mM Hepes-NaOH pH 7.4, 150 mM NaCl, without CaCl2, 25 °C
# [14] = molecular target: NP2 N- (neuronal pentraxin 2 in which CC1 was deleted) (human); assay: as above
# [15] = molecular target: T3, NP2 PTX (pentraxin domain of neuronal pentraxin 2) (human); assay: SPR; competition; Biacore T200; GluA4 ATD (~800 RU) amine-coupled on CM5, 500 nM NP2 PTX mixed with 0-1000 nM VHH N1 as analyte; 10 mM Hepes-NaOH pH 7.4, 150 mM NaCl, 3 mM CaCl2, 0.005% Tween-20
# [16] = molecular target: T7, NP2 PTX D407A (human, UniProt P47972, D407A); assay: SPR; Biacore 8K; NP2 PTX single alanine mutants (~800 RU) amine-coupled on CM5, VHH N1 analyte 1.25-20 nM (D407A) or 62.5-1000 nM (V412A, W419A); 10 mM Hepes-NaOH pH 7.4, 150 mM NaCl, 0.005% Tween-20, 3 mM CaCl2; settings: both partners purified
# T7 construct: neuronal pentraxin 2 (NP2, Nptx2), human, pentraxin (PTX) domain with D407A; also called D407A_(NP2 PTX); source: Expi293 cells, secreted, purified (same procedure as NP2 PTX WT)
# [17] = molecular target: T3, NP2 PTX (pentraxin domain of neuronal pentraxin 2) (human); assay: SPR; Biacore 8K; NP2 N- (~800 RU) or NP2 PTX (~600 RU) amine-coupled on CM5, VHH N1 analyte 1.25-20 nM, single-cycle kinetics; 10 mM Hepes-NaOH pH 7.4, 150 mM NaCl, 0.005% Tween-20, 3 mM CaCl2, 25 °C
# [18] = molecular target: NP2 N- (neuronal pentraxin 2 in which CC1 was deleted) (human); assay: as above
# T5 sequence (Q15818 226-428): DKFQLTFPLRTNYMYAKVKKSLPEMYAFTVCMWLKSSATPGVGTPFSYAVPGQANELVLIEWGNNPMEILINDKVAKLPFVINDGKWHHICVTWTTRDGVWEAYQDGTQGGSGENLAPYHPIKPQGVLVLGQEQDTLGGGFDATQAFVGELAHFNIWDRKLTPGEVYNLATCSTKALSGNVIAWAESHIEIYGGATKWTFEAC
# T6 sequence (O95502 292-494): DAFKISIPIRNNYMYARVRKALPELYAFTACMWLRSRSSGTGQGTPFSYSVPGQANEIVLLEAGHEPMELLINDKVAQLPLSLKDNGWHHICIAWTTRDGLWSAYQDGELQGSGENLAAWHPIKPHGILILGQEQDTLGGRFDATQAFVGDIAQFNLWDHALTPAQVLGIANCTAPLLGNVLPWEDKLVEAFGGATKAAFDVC
molecule,measurement,setting,value
NP2 CC2 (construct consisting of only the CC2 region of NP2) (from UniProt P47972 16-431) (domain or fragment),stoichiometry N,[1],> 3
same,stoichiometry N,[2],> 3
"NP2 N- (neuronal pentraxin 2 in which CC1 was deleted) (domain or fragment, Exact start is not in the text (Figures 1B and S1); it is set by convention just after CC1 and its Cys95, keeping CC2, PTX and the native C-terminus. Human is inferred from the D407/V412/W419 …) TMGDLPRDPGHVVEQLSRSLQTLKDRLESLEHQLRANVSNAGLPGDFREVLQQRLGELERQLLRKVAELEDEKSLLHNETSAHRQKTESTLNALLQRVTELERGNSAFKSPDAFKVSLPLRTNYLYGKIKKTLPELYAFTICLWLRSSASPGIGTPFSYAVPGQANEIVLIEWGNNPIELLINDKVAQLPLFVSDGKWHHICVTWTTRDGMWEAFQDGEKLGTGENLAPWHPIKPGGVLILGQEQDTVGGRFDATQAFVGELSQFNIWDRVLRAQEIVNIANCSTNMPGNIIPWVDNNVDVFGGASKWPVETCEERLLDL",stoichiometry N,[3],6 and 3
same,stoichiometry N,[4],9 and 12
"NP2 PTX (pentraxin domain of neuronal pentraxin 2) (domain or fragment, human, neuronal pentraxin 2 (NP2, Nptx2), human, pentraxin (PTX) domain; also called NP2 PTX WT; PTX domain of NP2; source: Expi293 cells, secreted, purified (Ni-NTA, SEC)) DAFKVSLPLRTNYLYGKIKKTLPELYAFTICLWLRSSASPGIGTPFSYAVPGQANEIVLIEWGNNPIELLINDKVAQLPLFVSDGKWHHICVTWTTRDGMWEAFQDGEKLGTGENLAPWHPIKPGGVLILGQEQDTVGGRFDATQAFVGELSQFNIWDRVLRAQEIVNIANCSTNMPGNIIPWVDNNVDVFGGASKWPVETCEERLLDL",Kd,[5],0.0197 µM
same,dH,[5],-30.8 kJ/mol
same,stoichiometry N,[5],0.913
same,Kd,[6],0.0575 µM
same,dH,[6],-31.5 kJ/mol
same,stoichiometry N,[6],0.781
same,Kd,[7],13.6 µM
"VHH N1 (VHH, selected by phage display from an immune library of an alpaca immunized with NP2 N-; Cloned into the pRA2 vector with a C-terminal His-tag; detected by anti-His in the cell staining; also called N1 VHH; VHH for NP2; source: E. coli BL21 (DE3), purified (Ni-NTA, SEC); not shown: His-tag, C-terminal, kept) VHH: QLQLVESGGGLVQAGDSLKLSCIDSGSTFNLYAMGWFRQAPGKEREFVASISRGGGSSYYADSQLKGRFTISRDNAKNTVYLQMNSLKPEDTAVYYCNARAGRYDYWGQGTQVTVSS",Kd,[8],0.0116 µM
same,koff,[8],0.0249 s⁻¹
same,kon,[8],2.21e+06 M⁻¹ s⁻¹
same,Kd,[9],0.0335 µM
same,koff,[9],0.00514 s⁻¹
same,kon,[9],156000 M⁻¹ s⁻¹
same,binding result,[10],binds
same,binding result,[11],"no binding (tested: 10,000 nM)"
same,binding result,[12],"no binding (tested: 10,000 nM)"
same,stoichiometry N,[13],1
same,stoichiometry N,[14],1
same,IC50,[15],0.216 µM
same,fold change of affinity against NP2 PTX WT,[16],3 times lower
same,Kd,[17],0.00114 µM
same,koff,[17],0.00208 s⁻¹
same,kon,[17],1.92e+06 M⁻¹ s⁻¹
same,Kd,[18],0.00141 µM
same,koff,[18],0.00524 s⁻¹
same,kon,[18],3.7e+06 M⁻¹ s⁻¹
